Experimental findings from the supplement of paper PMC6379048 are described below.

Experiment in all cases: Kd (EC50 corrected by depletion factor)
The target in one data set is T1, CPSF1 (UniProt Q10570).
T1 sequence: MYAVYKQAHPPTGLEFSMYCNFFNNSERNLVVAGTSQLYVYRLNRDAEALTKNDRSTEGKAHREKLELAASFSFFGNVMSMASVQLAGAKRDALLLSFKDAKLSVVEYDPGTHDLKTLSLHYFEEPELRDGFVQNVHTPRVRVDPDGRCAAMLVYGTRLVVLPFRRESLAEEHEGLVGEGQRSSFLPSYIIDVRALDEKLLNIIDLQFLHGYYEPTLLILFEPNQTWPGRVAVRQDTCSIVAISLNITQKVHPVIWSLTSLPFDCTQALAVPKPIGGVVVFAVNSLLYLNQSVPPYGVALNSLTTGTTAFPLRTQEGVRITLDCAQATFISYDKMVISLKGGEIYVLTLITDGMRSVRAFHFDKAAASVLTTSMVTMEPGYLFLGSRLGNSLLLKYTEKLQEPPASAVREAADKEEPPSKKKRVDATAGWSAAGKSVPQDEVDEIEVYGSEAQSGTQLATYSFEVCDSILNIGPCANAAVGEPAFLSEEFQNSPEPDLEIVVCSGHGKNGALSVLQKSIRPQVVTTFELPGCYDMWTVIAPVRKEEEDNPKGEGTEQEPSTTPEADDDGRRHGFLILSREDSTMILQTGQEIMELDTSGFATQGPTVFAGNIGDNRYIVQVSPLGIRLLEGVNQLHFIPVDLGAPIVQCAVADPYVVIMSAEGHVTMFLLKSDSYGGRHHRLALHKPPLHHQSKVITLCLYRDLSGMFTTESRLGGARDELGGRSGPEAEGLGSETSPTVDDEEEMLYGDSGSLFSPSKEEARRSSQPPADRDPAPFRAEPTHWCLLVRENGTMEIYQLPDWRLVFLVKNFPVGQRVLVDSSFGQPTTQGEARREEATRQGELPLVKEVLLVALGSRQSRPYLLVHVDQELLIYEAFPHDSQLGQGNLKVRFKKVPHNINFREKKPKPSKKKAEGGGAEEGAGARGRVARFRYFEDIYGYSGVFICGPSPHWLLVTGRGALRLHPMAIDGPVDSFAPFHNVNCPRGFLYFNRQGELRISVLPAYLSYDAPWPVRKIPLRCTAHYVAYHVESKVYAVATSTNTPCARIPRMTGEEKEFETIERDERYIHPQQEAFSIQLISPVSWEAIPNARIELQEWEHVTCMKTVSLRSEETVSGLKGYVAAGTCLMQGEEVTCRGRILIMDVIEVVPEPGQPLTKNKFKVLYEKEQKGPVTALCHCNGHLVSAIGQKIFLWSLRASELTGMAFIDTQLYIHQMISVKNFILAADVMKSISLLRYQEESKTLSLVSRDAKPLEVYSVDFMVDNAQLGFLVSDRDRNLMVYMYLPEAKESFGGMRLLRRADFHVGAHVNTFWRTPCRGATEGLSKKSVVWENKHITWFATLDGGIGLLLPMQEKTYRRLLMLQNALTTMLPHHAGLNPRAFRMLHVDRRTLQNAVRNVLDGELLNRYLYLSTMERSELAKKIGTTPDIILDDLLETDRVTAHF
The essentials:
(§1)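 HEK293-FT lysate (2.5 mg protein/well) was treated with free RNA oligos (0 nM to 30 μM) for 1 h at 4°C, then with the same oligos on NHS-Sepharose beads for 30 min at 4°C. Bound proteins were quantified by label-free LC-MS/MS relative to the control. EC50 came from a four-parameter log-logistic fit, and Kd is EC50 times a protein-dependent depletion factor.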

For the next data set, the target named is T2, CHERP (UniProt Q8IWX8).
T2 sequence: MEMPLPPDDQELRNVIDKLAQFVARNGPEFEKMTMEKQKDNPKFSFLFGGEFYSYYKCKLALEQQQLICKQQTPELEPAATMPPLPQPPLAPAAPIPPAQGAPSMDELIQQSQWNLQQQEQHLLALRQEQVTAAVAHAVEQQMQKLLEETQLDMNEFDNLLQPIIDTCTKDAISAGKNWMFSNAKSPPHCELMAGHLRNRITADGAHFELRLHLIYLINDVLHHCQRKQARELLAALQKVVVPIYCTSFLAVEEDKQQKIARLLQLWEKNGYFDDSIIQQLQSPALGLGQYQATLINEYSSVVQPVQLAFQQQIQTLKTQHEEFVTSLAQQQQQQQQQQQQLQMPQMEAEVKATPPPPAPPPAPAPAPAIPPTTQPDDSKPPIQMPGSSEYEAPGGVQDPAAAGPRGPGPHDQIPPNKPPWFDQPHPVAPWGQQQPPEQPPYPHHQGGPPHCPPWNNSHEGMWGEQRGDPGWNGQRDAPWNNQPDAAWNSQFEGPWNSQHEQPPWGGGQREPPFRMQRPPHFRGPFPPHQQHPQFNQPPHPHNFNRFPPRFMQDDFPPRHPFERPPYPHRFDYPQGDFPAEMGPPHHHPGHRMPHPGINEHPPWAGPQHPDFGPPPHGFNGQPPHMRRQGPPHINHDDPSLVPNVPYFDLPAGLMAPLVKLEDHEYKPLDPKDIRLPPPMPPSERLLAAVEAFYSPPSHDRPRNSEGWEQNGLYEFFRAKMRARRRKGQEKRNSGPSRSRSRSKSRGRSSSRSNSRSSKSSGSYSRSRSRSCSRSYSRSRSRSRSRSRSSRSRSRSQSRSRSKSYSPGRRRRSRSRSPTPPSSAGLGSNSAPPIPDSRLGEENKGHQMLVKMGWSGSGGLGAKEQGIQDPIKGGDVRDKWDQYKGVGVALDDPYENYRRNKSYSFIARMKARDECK
The essentials: as §1

A further data set concerns the target HNRNPAB (UniProt Q99729). The method in brief: as §1

pKd: −log10 of the molar value.

Chain of HNRNPAB (Q99729 whole entry): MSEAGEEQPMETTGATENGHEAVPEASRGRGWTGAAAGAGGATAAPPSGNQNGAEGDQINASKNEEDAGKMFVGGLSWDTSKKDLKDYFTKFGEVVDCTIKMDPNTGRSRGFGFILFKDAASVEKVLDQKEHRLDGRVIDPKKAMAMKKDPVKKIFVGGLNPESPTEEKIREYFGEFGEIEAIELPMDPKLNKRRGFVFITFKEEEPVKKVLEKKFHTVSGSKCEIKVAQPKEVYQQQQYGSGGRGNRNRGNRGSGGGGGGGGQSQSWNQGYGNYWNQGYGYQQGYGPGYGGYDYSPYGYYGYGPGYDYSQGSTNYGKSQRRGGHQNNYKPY

As to AAUAAA, the pKd in the data set with CPSF1 was 8.16; with CHERP, 6.59; with HNRNPAB, 6.33.
UAUUUAU: the pKd in the data set with CPSF1 is 6.47; with CHERP it was 7.71; in the data set with HNRNPAB, 5.64.
